Test results: patent US20140072613A1, “Compositions and Methods for Treating Cutaneous Scarring” (priority 2012, published 2014)

Assays:
Experiment in all cases: biochemical
Format in all cases: biochemical
266 human kinases [1] = biological target: 266 human kinases (Homo sapiens, UniProt Q9NYY3); conditions: Snk(h); 100 μM
Summary of the method: (§1)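 Steps: kinase transfers radiolabelled phosphate from ATP onto a positively charged substrate; the substrate is trapped on a negatively charged filter; bound radioactivity is counted by scintillation and compared with uninhibited (100%) activity.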

266 human kinases [2] = biological target: T1, 266 human kinases (Homo sapiens, UniProt Q7L7X3); conditions: TAO1(h); 100 μM
T1 sequence (Q7L7X3 1-1001): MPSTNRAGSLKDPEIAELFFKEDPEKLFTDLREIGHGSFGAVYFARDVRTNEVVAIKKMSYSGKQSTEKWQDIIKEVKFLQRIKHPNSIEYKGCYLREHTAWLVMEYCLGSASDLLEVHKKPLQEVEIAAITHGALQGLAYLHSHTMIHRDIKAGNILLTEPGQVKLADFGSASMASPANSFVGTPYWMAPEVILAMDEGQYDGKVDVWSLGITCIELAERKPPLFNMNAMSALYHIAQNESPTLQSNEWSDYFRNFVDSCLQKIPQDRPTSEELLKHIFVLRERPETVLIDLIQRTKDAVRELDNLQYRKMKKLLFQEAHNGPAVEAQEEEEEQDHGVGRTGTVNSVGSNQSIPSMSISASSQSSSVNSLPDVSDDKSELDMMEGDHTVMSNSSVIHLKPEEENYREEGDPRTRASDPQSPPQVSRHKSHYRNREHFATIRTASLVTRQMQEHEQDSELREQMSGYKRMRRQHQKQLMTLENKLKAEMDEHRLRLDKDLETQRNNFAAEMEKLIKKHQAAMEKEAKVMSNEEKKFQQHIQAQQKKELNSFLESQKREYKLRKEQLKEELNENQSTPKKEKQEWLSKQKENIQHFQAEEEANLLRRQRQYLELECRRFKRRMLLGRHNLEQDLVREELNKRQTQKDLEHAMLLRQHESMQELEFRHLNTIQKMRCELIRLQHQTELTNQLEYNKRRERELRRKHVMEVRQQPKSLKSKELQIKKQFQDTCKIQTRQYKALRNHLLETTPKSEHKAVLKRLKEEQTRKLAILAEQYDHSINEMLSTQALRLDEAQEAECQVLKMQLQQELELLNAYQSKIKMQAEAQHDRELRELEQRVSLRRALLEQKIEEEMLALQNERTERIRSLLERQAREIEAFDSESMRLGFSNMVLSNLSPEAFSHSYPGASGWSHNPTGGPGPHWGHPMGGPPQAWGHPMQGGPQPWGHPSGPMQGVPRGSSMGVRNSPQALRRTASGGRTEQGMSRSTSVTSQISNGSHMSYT
Summary of the method: as §1

266 human kinases [3] = biological target: 266 human kinases (Homo sapiens, UniProt P24941); conditions: 100 μM
Summary of the method: as §1

266 human kinases [4] = biological target: 266 human kinases (Homo sapiens, UniProt Q15349); conditions: Rsk3(h); 100 μM
Summary of the method: as §1

266 human kinases [5] = biological target: 266 human kinases (Homo sapiens, UniProt P07949, V804M); conditions: Ret(V804M)(h); 100 μM
Summary of the method: as §1

266 human kinases [6] = biological target: 266 human kinases (Homo sapiens, UniProt P04629); conditions: TrkA(h); 100 μM
Summary of the method: as §1

266 human kinases [7] = biological target: T2, 266 human kinases (Homo sapiens, UniProt O15146); conditions: MuSK(h); 100 μM
T2 sequence (O15146 24-869): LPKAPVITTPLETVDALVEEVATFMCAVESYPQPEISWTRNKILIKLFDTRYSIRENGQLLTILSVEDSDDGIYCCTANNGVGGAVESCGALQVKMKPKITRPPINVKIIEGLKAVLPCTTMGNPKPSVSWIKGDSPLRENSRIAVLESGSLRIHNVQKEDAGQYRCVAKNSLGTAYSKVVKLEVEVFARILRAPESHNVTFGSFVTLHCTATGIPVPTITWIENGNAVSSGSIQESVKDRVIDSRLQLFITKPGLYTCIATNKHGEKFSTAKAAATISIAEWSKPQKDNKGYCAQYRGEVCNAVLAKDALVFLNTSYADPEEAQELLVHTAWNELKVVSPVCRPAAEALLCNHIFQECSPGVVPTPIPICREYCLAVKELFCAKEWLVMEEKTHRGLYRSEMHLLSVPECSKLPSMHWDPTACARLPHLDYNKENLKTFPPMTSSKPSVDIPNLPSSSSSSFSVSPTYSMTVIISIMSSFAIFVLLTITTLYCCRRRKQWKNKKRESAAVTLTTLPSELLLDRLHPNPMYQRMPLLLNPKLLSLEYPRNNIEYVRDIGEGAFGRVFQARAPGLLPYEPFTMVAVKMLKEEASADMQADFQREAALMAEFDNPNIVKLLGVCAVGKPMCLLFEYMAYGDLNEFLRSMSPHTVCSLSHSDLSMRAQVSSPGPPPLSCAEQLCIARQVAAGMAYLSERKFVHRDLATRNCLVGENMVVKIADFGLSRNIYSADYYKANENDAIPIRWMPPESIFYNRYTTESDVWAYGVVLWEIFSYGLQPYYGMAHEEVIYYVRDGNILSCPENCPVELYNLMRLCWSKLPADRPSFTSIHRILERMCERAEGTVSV
Summary of the method: as §1

266 human kinases [8] = biological target: 266 human kinases (Homo sapiens, UniProt Q9H1R3); conditions: MLCK(h); 100 μM
Summary of the method: as §1

266 human kinases [9] = biological target: 266 human kinases (Homo sapiens, UniProt P19784); conditions: CK2α2(h); 100 μM
Summary of the method: as §1

266 human kinases [10] = biological target: 266 human kinases (Homo sapiens, UniProt O75914); conditions: PAK3(h); 100 μM
Summary of the method: as §1

Sequence of 266 human kinases (Homo sapiens, UniProt Q9H1R3) (Q9H1R3 whole entry): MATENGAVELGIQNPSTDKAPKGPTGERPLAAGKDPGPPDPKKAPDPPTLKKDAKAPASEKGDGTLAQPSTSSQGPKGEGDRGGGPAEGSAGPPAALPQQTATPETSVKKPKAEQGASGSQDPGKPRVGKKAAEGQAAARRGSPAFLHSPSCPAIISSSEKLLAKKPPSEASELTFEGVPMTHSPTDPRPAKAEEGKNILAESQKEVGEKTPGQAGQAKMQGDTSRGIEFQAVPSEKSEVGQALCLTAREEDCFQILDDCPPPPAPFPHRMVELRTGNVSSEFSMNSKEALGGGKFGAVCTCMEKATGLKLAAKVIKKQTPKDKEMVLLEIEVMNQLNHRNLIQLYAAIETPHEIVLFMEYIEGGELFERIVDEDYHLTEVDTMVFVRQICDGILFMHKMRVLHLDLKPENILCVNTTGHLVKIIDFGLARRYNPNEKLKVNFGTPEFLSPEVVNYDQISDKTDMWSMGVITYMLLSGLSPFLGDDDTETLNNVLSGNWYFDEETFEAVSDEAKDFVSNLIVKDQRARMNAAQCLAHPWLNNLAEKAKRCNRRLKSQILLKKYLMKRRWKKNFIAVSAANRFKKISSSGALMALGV
Sequence of 266 human kinases (Homo sapiens, UniProt Q15349) (Q15349 whole entry): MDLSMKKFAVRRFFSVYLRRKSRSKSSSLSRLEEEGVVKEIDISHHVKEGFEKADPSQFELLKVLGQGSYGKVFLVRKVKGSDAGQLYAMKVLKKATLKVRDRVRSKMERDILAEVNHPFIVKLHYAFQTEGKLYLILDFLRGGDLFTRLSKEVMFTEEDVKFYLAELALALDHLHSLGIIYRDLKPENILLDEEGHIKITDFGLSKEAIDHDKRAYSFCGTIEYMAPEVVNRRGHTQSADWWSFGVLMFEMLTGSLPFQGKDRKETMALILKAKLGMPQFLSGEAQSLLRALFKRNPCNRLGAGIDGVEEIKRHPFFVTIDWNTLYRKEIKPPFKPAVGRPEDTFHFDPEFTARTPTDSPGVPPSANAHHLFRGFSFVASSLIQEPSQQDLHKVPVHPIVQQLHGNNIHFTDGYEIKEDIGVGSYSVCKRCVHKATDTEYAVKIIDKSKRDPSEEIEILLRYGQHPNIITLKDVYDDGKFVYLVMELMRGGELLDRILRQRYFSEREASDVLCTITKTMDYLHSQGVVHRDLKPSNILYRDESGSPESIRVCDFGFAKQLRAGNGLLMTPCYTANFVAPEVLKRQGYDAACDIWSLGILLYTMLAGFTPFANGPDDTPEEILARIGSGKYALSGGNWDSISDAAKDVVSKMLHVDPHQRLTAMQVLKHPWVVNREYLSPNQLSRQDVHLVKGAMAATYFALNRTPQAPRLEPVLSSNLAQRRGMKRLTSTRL
Sequence of 266 human kinases (Homo sapiens, UniProt O75914) (O75914 whole entry): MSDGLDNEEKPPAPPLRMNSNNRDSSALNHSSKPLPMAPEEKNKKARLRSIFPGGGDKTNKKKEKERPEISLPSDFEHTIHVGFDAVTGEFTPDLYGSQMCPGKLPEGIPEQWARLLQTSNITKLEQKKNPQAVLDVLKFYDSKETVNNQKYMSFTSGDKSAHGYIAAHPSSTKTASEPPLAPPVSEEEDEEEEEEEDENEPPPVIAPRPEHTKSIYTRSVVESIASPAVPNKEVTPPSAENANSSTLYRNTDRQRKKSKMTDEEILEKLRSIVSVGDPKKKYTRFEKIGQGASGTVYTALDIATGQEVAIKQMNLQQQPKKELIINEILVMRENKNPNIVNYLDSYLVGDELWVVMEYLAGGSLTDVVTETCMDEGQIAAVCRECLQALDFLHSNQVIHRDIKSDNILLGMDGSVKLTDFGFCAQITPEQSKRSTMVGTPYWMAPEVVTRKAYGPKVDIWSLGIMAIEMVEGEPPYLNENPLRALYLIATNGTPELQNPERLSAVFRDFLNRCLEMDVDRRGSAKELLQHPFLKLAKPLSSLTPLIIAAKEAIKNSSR
Sequence of 266 human kinases (Homo sapiens, UniProt P19784) (P19784 whole entry): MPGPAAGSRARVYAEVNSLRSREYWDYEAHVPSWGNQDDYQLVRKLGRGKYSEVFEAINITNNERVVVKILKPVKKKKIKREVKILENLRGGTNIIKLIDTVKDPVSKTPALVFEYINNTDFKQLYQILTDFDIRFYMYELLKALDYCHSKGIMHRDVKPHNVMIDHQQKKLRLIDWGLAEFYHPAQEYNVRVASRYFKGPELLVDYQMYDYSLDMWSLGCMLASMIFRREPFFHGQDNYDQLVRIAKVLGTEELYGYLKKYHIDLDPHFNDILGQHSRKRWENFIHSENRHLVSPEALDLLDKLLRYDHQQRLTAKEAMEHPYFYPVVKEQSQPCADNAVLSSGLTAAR
Sequence of 266 human kinases (Homo sapiens, UniProt Q9NYY3) (Q9NYY3 whole entry): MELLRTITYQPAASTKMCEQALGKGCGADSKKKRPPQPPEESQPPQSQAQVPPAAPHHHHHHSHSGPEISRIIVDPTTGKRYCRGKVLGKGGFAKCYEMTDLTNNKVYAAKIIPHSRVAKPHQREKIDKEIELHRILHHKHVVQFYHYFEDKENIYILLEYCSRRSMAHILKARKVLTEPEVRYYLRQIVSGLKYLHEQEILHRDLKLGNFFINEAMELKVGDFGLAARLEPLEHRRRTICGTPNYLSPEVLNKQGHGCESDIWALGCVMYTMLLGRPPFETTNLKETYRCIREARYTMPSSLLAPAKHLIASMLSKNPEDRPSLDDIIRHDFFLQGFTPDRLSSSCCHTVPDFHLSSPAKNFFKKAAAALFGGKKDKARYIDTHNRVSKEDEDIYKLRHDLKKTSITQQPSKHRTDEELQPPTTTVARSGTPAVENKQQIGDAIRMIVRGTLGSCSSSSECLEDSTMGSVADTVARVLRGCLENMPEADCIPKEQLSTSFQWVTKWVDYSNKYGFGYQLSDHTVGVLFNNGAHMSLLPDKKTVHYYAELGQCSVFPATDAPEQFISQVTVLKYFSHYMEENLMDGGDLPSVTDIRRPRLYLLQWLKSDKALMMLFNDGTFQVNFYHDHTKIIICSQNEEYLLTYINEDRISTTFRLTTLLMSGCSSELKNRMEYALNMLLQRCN
Sequence of 266 human kinases (Homo sapiens, UniProt P04629) (P04629 33-796): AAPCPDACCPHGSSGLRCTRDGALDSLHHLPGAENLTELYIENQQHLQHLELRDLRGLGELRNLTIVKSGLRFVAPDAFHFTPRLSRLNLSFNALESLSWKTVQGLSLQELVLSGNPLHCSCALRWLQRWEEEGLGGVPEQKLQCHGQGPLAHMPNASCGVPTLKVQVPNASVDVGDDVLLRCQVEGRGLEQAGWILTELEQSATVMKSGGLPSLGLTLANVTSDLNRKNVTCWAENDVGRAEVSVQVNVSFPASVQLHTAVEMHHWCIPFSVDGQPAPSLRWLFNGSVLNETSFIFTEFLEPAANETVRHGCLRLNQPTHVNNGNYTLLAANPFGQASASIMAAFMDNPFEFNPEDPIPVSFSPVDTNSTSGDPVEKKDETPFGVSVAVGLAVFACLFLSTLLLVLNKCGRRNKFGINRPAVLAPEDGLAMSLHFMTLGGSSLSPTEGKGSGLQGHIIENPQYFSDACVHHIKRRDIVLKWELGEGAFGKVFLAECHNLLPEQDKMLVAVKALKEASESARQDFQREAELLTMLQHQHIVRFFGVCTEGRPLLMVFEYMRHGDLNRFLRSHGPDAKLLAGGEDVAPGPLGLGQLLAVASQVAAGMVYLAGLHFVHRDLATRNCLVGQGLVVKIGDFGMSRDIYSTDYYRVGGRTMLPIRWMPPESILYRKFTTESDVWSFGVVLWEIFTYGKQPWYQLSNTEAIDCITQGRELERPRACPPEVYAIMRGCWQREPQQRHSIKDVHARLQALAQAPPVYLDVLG

Sequence: HRRIKAWLKKIKALARQLGVAA (mammal) [MMI-0500]
- % activity (266 human kinases [1]): 122%
- % activity (266 human kinases [2]): 24%
- % activity (266 human kinases [3]; CDK2/cyclinA(h)): 87%
- % activity (266 human kinases [3]; CDK2/cyclinE(h)): 19%
- % activity (266 human kinases [4]): 23%
- % activity (266 human kinases [5]): 36%
- % activity (266 human kinases [6]): 24%
- % activity (266 human kinases [7]): 27%
- % activity (266 human kinases [8]): 0%

Sequence: YARAAARQARAKALNRQLGVA (mammal) [MMI-0200]
- % activity (266 human kinases [9]): 88%
- % activity (266 human kinases [10]): 50%
